According to patent US20210147486A1 (VIB VZW, published 2021):
Residue numbers refer to the chain shown, from its start. Names may count otherwise. Where no end group is shown, it is not given here. The star is where a group is joined. NH(CH2)5NH2 = NCCCCCN*

Key:
[1] = molecular target: T1, CsgG Y51A/N55V/F56Q/N91R/K94Q/R97W-del(V105-I107) pore containing the C terminal strep tag (Escherichia coli, UniProt P0AEA2 16-277); test: reconstitution of purified pore with synthetic peptide; SDS-PAGE after heating
T1 construct: also called Y51A/F56Q/N55V/N91R/K94Q/R97W-del(V105-I107); not shown: C-terminal Strep tag
T1 chain: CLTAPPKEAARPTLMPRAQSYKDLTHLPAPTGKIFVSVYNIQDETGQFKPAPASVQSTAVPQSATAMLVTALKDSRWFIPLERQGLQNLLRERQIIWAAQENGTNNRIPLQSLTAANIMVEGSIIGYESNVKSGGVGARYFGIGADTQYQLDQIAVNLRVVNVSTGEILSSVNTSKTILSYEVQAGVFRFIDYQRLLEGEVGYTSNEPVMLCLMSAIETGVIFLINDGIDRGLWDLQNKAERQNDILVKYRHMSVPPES

[2] = molecular target: T2, E. coli CsgG (wild type) fused C-terminally to a Strep-II tag (Escherichia coli, UniProt P0AEA2 16-277, N-terminal Cys of mature CsgG lipidated (N-terminal lipidation of CsgG)); test: in vitro reconstitution 2:1 peptide:CsgG, StrepTactin pull down, native PAGE fluorescence
T2 construct: Nonameric pore; dimers of nonamers (18-mer) also seen; also called CsgG-Strep; CsgG pore; not shown: C-terminal Strep-II tag
T2 sequence: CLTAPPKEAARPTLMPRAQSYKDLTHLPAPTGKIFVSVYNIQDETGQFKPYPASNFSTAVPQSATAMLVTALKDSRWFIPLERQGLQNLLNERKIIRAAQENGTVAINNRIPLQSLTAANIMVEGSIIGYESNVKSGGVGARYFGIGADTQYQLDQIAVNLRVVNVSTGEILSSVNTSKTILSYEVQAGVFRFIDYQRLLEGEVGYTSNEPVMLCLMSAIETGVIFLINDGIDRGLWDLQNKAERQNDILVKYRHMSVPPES

[3] = molecular target: T3, CsgG Y51A/F56Q/K94Q/R97W/R192D-del(V105-I107), Strep-tagged (Escherichia coli, UniProt P0AEA2 16-277); test: as above
T3 construct: also called CsgG mutant with altered constriction; not shown: C-terminal Strep tag
T3 chain: T1 chain with V55N, R91N, R189D

[4] = molecular target: T4, CsgG Y51A/F56Q/N91R/K94Q/R97W-del(V105-I107) pore containing the C terminal strep tag (Escherichia coli, UniProt P0AEA2 16-277); test: co-expression, purification, TEV cleavage; DNA translocation current recording
T4 construct: not shown: C-terminal Strep tag
T4 chain: T1 chain with V55N

[5] = molecular target: T1, CsgG …; test: complex made by incubating pore and peptide; DNA translocation current recording
[6] = molecular target: T5, CsgG Y51T/N55V/F56Q/N91R/K94Q/R97W-del(V105-I107) pore containing the C terminal strep tag (Escherichia coli, UniProt P0AEA2 16-277); test: panel B; complex made by incubating pore and peptide; DNA translocation current recording
T5 construct: not shown: C-terminal Strep tag
T5 chain: T1 chain with A51T

[7] = molecular target: T6, CsgG Y51A/N55I/F56Q/N91R/K94Q/R97W-del(V105-I107) pore containing the C terminal strep tag (Escherichia coli, UniProt P0AEA2 16-277); test: panel C; complex made by incubating pore and peptide; DNA translocation current recording
T6 construct: N551 read as N55I; also called Y51A/N551/F56Q/N91R/K94Q/R97W-del(V105-I107) (so in the source); not shown: C-terminal Strep tag
T6 chain: T1 chain with V55I

[8] = molecular target: T7, CsgG Y51A/F56A/N91R/K94Q/R97W-del(V105-I107) pore containing the C terminal strep tag (Escherichia coli, UniProt P0AEA2 16-277); test: panel D; complex made by incubating pore and peptide; DNA translocation current recording
T7 construct: not shown: C-terminal Strep tag
T7 chain: T1 chain with V55N, Q56A

[9] = molecular target: T8, CsgG Y51A/F56I/N91R/K94Q/R97W-del(V105-I107) pore containing the C terminal strep tag (Escherichia coli, UniProt P0AEA2 16-277); test: panel E; complex made by incubating pore and peptide; DNA translocation current recording
T8 construct: F561 read as F56I; also called Y51A/F561/N91R/K94Q/R97W-del(V105-I107) (so in the source); not shown: C-terminal Strep tag
T8 chain: T1 chain with V55N, Q56I

[10] = molecular target: T9, CsgG Y51S/N55V/F56Q/N91R/K94Q/R97W-del(V105-I107) pore containing the C terminal strep tag (Escherichia coli, UniProt P0AEA2 16-277); test: panel F; complex made by incubating pore and peptide; DNA translocation current recording
T9 construct: not shown: C-terminal Strep tag
T9 chain: T1 chain with A51S

[11] = molecular target: T1, CsgG …; test: reconstitution of purified pore with synthetic peptide; electrophysiology
[12] = molecular target: T2, E. coli CsgG (wild type) fused …; test: co-expression in E. coli; His then Strep tandem affinity purification; SDS-PAGE
[13] = molecular target: T2, E. coli CsgG (wild type) fused …; test: co-expression, Strep affinity purification, anti-His dot blot

## GTMTFQFRNPNFGGNPNNGAFLLNSAQAQNSYKDPSYNDDFGIET [CsgF-(1-45) synthetic peptide]
[1]
  binding result: binds

B1: Alexa 594-labelled CsgF peptide corresponding to the first 34 residues of mature CsgF (peptide)
peptide: GTMTFQFRNPNFGGNPNNGAFLLNSAQAQNSYKD-{NH(CH2)5NH2-Alexa594}
notes: Synthetic peptide; also called CsgF N-terminal peptide; FCP
[2]
  binding result: binds
[3]
  binding result: binds

B2: CsgF truncated at position 35 by TEV cleavage, with ENLYFQ left at the C-terminus (peptide)
peptide: GTMTFQFRNPNFGGNPNNGAFLLNSAQAQNSYKDPENLYFQ
notes: The text calls it 42 amino acids long; 35 + 6 gives 41; also called CsgF truncated protein
[4]
  binding result: binds

## GTMTFQFRNPNFGGNPSNGAFLLNSAQAQNSYKDPENLYFQ [CsgF N17S truncated at position 35 by TEV cleavage, with ENLYFQ left at the C-terminus]
[4]
  binding result: binds

## GTMTFQFRNPNFGGNPSNGAFLLNSAQAQNSYKDP (also called CsgF-N175-(1-35)) [CsgF-N17S-(1-35) peptide]
[5]
  binding result: binds
[6]
  binding result: binds
[7]
  binding result: binds
[8]
  binding result: binds
[9]
  binding result: binds
[10]
  binding result: binds

## GTMTFQFRNPNFGGNPVNGAFLLNSAQAQNSYKDP [CsgF-N17V-(1-35) peptide]
[5]
  binding result: binds

## GTMTFQFRNPNFGGNPNNGAFLLNSAQAQN [CsgF-(1-30) synthetic peptide]
[11]
  binding result: binds

## GTMTFQFRNPNFGGNPNNGAFLLNSAQAQ [CsgF-(1-29) synthetic peptide]
[11]
  binding result: binds

B3: E. coli CsgF (mature) with a C-terminal 6x histidine tag (other)
chain: GTMTFQFRNPNFGGNPNNGAFLLNSAQAQNSYKDPSYNDDFGIETPSALDNFTQAIQSQILGGLLSNINTGKPGRMVTNDYIVDIANRDGQLQLNVTDRKTGQTSTIQVSGLQNNSTDFHHHHHH
notes: a start Met is not mentioned; 9:9 stoichiometry with CsgG in the cryoEM structure; also called CsgF-His
[12]
  binding result: binds

B4: CsgF 20:64 fragment with C-terminal 6xHis (from pNA100) (peptide)
peptide: GTMTFQFRNPNFGGNPNNGAFLLNSAQAQNSYKDPSYNDDFGIETHHHHHH
notes: also called CsgF 1-64; CsgF fragment 1-64
[13]
  binding result: binds
